These results are taken from US10336832.

Assay [1] concerns the target pKal catalytic domain Mutant 4 (human) (UniProt P03952). Kind of assay: Ki,app, equilibrium, fluorogenic substrate.
The target in assay [2] is human plasma kallikrein (active form, purified from human plasma and activated with factor XIIa) (human) (UniProt P03952). Description: ELISA, target/background. A general note: ELISA stands for enzyme-linked immunosorbent assay.
human plasma kallikrein (active form, purified from human plasma and activated with factor XIIa) (human), sequence (P03952 20-390 limits assumed, chain 1 of 2): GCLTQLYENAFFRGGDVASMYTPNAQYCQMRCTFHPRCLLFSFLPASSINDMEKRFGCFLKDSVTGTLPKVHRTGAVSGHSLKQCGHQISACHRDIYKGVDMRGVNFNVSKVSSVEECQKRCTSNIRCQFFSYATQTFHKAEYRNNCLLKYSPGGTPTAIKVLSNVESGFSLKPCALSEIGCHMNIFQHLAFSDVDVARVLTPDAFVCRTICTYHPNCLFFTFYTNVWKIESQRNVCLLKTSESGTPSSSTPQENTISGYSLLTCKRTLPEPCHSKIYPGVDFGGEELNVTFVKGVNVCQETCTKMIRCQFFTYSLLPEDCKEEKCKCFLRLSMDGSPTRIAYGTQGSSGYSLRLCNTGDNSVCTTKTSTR
human plasma kallikrein (active form, purified from human plasma and activated with factor XIIa) (human), sequence (P03952 391-638 limits assumed, chain 2 of 2): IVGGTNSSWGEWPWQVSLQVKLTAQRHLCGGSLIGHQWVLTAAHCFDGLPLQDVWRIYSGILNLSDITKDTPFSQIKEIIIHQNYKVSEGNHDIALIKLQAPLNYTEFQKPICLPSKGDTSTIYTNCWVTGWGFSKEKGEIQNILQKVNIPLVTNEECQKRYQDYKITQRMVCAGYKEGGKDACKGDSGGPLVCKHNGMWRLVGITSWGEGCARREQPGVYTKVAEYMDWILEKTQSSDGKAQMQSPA

pKal catalytic domain Mutant 4 (human), sequence (P03952 other isoform, or with tags, fused parts or gaps mutant): as the sequence (P03952 391-638 limits assumed, chain 2 of 2) above, with S7A, S8A counted along it

B1: X101-A01 (antibody, V domains shown)
VH: EVQLLESGGGLVQPGGSLRLSCAASGFTFSHYLMTWVRQAPGKGLEWVSYISPSGGHTIYADSVKGRFTISRDNSKNTLYLQMNSLRAEDTAVYYCARVARGIAARSRTSYFDYWGQGTLVTVSS
VL: EIVLTQSPGTLSLSPGERATLSCRTSQFVNSNYLAWYQQKPGQAPRLLIYGASSRATGIPDRFSGSGSGTDFTLTISRLEPEDFAVYYCQQSSRTPWTFGQGTKVEIK
Molecule B1 gave a Ki in assay [1] of 0.25 nM.

B2: M29-E02 (Fab, V domains shown)
VH: EVQLLESGGGLVQPGGSLRLSCAASGFTFSRYPMMWVRQAPGKGLEWVSVIYPSGGDTFYADSVKGRFTISRDNSKNTLYLQMNSLRAEDTAVYYCASGDDYLWEAAVYWGQGTLVTVSS
VL: QSVLTQPPSVSEAPRQRVTISCSGSSSNIGNNAVSWYQQLPGKAPKLLIYYDDLLPSGVSDRFSGSKSGTSASLAISGLRSEDEADYYCAAWDDSLNGFVFGTGTKVTVL
Turning to B2, the ELISA (T/B) in assay [2] was 2.

B3: M28-F01 (Fab, V domains shown)
VH: EVQLLESGGGLVQPGGSLRLSCAASGFTFSVYLMHWVRQAPGKGLEWVSGISPSGGYTQYADSVKGRFTISRDNSKNTLYLQMNSLRAEDTAVYYCARPGGLDAFDIWGQGTMVTVSS
VL: DIQMTQSPSSLSASVGDRVTITCRASQSINTYLNWYQQKPGKAPKVLIHAASTLESGVPSRFSGSGSGTDFTLTISSLQPEDFATYYCQQSYSTPPTFGQGTKVEIK
In assay [2], B3 registered an ELISA (T/B) of 1.5.
